From patent publication US12194200B2, “Silk fibroin-based microneedles and methods of making the same” (Trustees of Tufts College, priority 2010, dated 2025)

Assay: HRP enzymatic activity detected with chromogenic substrate
Assay type: biochemical
Conditions: after silk processing and collagenase digestion
Procedure: The release kinetics of HRP from silk fibroin microneedles into the collagen hydrogels (N=3) were determined spectroscopically. The collagen hydrogel was selectively digested with collagenase. Subsequently, a colorimetric HRP enzyme activity assay was carried out as described later in the Exemplary Materials and Methods (FIG. 9C). […] Compared to the 2 hour and 8 hour water annealed devices, the untreated silk microneedles released in the same time period about 2.7±0.18 and about 5.6±0.99 times as much HRP, respectively. The beta sheet content in the silk fiborin microneedle samples was determined, e.g., by infrared spectroscopy, with results of ˜14%, ˜18% and ˜21% for the untreated, 2 hr-annealed and 8 hr-annealed silk fibroin microneedle samples, respectively. […]
HRP release model: The silk fibroin microneedles were loaded with 1 mg/ml of HRP (Sigma Aldrich). […] The collagen or gelatin slab measured approximately 2.5 mm in height. […] The needles were pierced through Parafilm (Parafilm M, Pechiney Plastic Packaging) membranes (polymer membrane in FIG. 8A) and subsequently applied to the hydrogel slabs to quantify the HRP release. […] To quantify the total amount of HRP release from the silk fibroin microneedles, a plurality of stacks, each of which included an array of silk fibroin microneedles, a polymer membrane and a collagen hydrogel, were prepared and evaluated at multiple time points. […]

horseradish peroxidase [HRP]
enzymatic activity of HRP: retained activity
